{"source": "paper PMC12047440", "about": "“LINE-1 ribonucleoprotein condensates bind DNA to enable nuclear entry during mitosis” (Science Advances, 2024)", "key": {"ΔStammer-ORF1p (human)": {"target": "ΔStammer-ORF1p (human)", "test": "mass photometry; purified ORF1p alone, landing on a glass coverslip; 300 nM ORF1p in 20 mM Hepes pH 7.5, 50 mM KCl, 1 mM MgCl2, 1 mM DTT; also a protein concentration series, a KCl series and 150 mM KCl; monomers to trimers, trimers to hexamers and higher-order oligomers"}, "ΔStammer-ORF1p": {"target": "ΔStammer-ORF1p (Homo sapiens, UniProt Q9UN81 1-338, del91-93)", "test": "fluorescence anisotropy; 50 mM KCl; 20 mM Hepes pH 7.5, 50 mM KCl (150 or 300 mM in Fig. S1D rows), 1 mM MgCl2, 1 mM DTT; 1 nM 6-FAM oligo; temperature not stated", "details": "protein: recombinant, tags: tag removed by TEV, N-terminal G left, chain copies: 3"}, "K3A/K4A-ORF1p": {"target": "K3A/K4A-ORF1p (Homo sapiens, UniProt Q9UN81 1-338, K3A;K4A)", "test": "fluorescence anisotropy; 50 mM KCl; 20 mM Hepes pH 7.5, 50 mM KCl (150 or 300 mM in Fig. S1D rows), 1 mM MgCl2, 1 mM DTT; 1 nM 6-FAM oligo; temperature not stated", "details": "protein: recombinant, tags: tag removed, N-terminal G left, chain copies: 3"}, "ORF1p WT [1]": {"target": "T1, ORF1p WT (Homo sapiens, UniProt Q9UN81 1-338)", "test": "fluorescence anisotropy; 50 mM KCl; 20 mM Hepes pH 7.5, 50 mM KCl (150 or 300 mM in Fig. S1D rows), 1 mM MgCl2, 1 mM DTT; 1 nM 6-FAM oligo; temperature not stated", "details": "protein: recombinant, tags: tag removed, N-terminal G left, chain copies: 3"}, "His-TEV-ORF1p": {"target": "T2, His-TEV-ORF1p (Homo sapiens, UniProt Q9UN81 1-338)", "T2 chain": "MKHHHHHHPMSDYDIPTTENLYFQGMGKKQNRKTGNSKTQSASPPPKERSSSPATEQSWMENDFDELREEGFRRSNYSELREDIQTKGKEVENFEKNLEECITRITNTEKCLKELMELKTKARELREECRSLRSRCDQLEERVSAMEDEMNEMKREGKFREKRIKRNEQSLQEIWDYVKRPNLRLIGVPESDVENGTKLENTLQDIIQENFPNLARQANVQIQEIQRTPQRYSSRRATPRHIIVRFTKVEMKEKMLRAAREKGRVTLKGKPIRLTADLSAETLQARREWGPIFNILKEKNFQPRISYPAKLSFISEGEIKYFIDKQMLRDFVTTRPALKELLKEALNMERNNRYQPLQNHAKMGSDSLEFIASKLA", "test": "fluorescence anisotropy; 50 mM KCl; 20 mM Hepes pH 7.5, 50 mM KCl (150 or 300 mM in Fig. S1D rows), 1 mM MgCl2, 1 mM DTT; 1 nM 6-FAM oligo; temperature not stated", "details": "protein: recombinant, tags: uncleaved N-terminal His-TEV, C-terminal ybbR, chain copies: 3"}, "ORF1p WT [2]": {"target": "T3, ORF1p WT (Homo sapiens, UniProt Q9UN81)", "test": "mass photometry; two-trimer peak more prominent; Anisotropy: 20 mM Hepes pH 7.5, 50 mM KCl, 1 mM MgCl2, 1 mM DTT, 1 nM 6-FAM oligo, temperature not stated; DNA curtains: 50, 150 or 300 mM KCl, RNP premix 1 min at room temperature", "details": "protein: recombinant; tags: tag removed, N-terminal G left; chain copies: 3"}, "ORF1p WT [3]": {"target": "T3, ORF1p WT", "test": "mass photometry; second peak, two trimers per RNA; Anisotropy: 20 mM Hepes pH 7.5, 50 mM KCl, 1 mM MgCl2, 1 mM DTT, 1 nM 6-FAM oligo, temperature not stated; DNA curtains: 50, 150 or 300 mM KCl, RNP premix 1 min at room temperature", "details": "protein: recombinant; tags: tag removed, N-terminal G left; chain copies: 3"}, "ORF1p WT [4]": {"target": "T3, ORF1p WT", "test": "mass photometry; one trimer per RNA; Anisotropy: 20 mM Hepes pH 7.5, 50 mM KCl, 1 mM MgCl2, 1 mM DTT, 1 nM 6-FAM oligo, temperature not stated; DNA curtains: 50, 150 or 300 mM KCl, RNP premix 1 min at room temperature", "details": "protein: recombinant; tags: tag removed, N-terminal G left; chain copies: 3"}, "ORF1p WT [5]": {"target": "T1, ORF1p WT", "test": "fluorescence anisotropy; 150 mM KCl; 20 mM Hepes pH 7.5, 50 mM KCl (150 or 300 mM in Fig. S1D rows), 1 mM MgCl2, 1 mM DTT; 1 nM 6-FAM oligo; temperature not stated", "details": "protein: recombinant; tags: tag removed, N-terminal G left; chain copies: 3; label: 5' 6-FAM (anisotropy); unstructured"}, "ORF1p WT [6]": {"target": "T1, ORF1p WT", "test": "fluorescence anisotropy; 300 mM KCl; 20 mM Hepes pH 7.5, 50 mM KCl (150 or 300 mM in Fig. S1D rows), 1 mM MgCl2, 1 mM DTT; 1 nM 6-FAM oligo; temperature not stated", "details": "protein: recombinant; tags: tag removed, N-terminal G left; chain copies: 3; label: 5' 6-FAM (anisotropy); unstructured"}, "[7]": {"target": "the molecule itself", "test": "mass photometry; purified ORF1p alone, landing on a glass coverslip; 300 nM ORF1p in 20 mM Hepes pH 7.5, 50 mM KCl, 1 mM MgCl2, 1 mM DTT; also a protein concentration series, a KCl series and 150 mM KCl; monomers to trimers, trimers to hexamers and higher-order oligomers"}, "[8]": {"details": "label: 5' 6-FAM on strand 1 (anisotropy), blunt"}, "[9]": {"details": "label: 5' 6-FAM (anisotropy), unstructured"}}, "note": "Several values for one entry are separate records, joined by “and”; a condition that tells them apart may be missing. Equal values may be shown once.", "data": [{"molecule": "ΔStammer-ORF1p (natural protein)", "values": [{"measurement": "stoichiometry N", "setting": "ΔStammer-ORF1p (human)", "value": 6}]}, {"molecule": "30 bp dsDNA (dsDNA) DNA 1: ACCATCATCAAAGACCAAAAGTAGATAAAA DNA 2: TTTTATCTACTTTTGGTCTTTGATGATGGT", "values": [{"measurement": "Kd", "setting": "ΔStammer-ORF1p; [8]", "value": 26.6, "unit": "nM"}, {"measurement": "Kd", "setting": "K3A/K4A-ORF1p; [8]", "value": 21.8, "unit": "nM"}, {"measurement": "Kd", "setting": "ORF1p WT [1]; [8]", "value": 18.9, "unit": "nM"}, {"measurement": "Kd", "setting": "His-TEV-ORF1p; [8]", "value": 28.6, "unit": "nM"}]}, {"molecule": "30 bp RNA/DNA hybrid (DNA:RNA) RNA: ACCAUCAUCAAAGACCAAAAGUAGAUAAAA DNA: TTTTATCTACTTTTGGTCTTTGATGATGGT", "values": [{"measurement": "Kd", "setting": "ORF1p WT [1]; label: 5' 6-FAM on RNA, blunt", "value": 4.68, "unit": "nM"}]}, {"molecule": "AAAAAAAAAAAAAAAAAAAAAAAAAAAAAA (ssRNA)", "note": "[30 nt poly(A)]", "values": [{"measurement": "Kd", "setting": "ORF1p WT [1]; label: 5' 6-FAM", "value": 6.01, "unit": "nM"}]}, {"molecule": "120 nt RNA (ssRNA) RNA: GGGCGAAUUGGGUACCGGGCCCCCCCUCGAGGCCGGUAGAGGUGUGGUCAAUAAGAGCGACCUCAUACUAUACCUGAGAAAGCAACCUGACCUACAGGAAAGAGUUACUCAAGAAUAAGA", "values": [{"measurement": "binding result", "setting": "ORF1p WT [2]", "value": "binds"}]}, {"molecule": "90 nt RNA (ssRNA) RNA: GGGCGAAUUGGGUACCGGGCCCCCCCUCGAGGCCGGUAGAGGUGUGGUCAAUAAGAGCGACCUCAUACUAUACCUGAGAAAGCAACCUGA", "values": [{"measurement": "binding result", "setting": "ORF1p WT [3]", "value": "binds"}]}, {"molecule": "60 nt RNA (ssRNA) RNA: GGGCGAAUUGGGUACCGGGCCCCCCCUCGAGGCCGGUAGAGGUGUGGUCAAUAAGAGCGA", "values": [{"measurement": "binding result", "setting": "ORF1p WT [4]", "value": "binds"}]}, {"molecule": "ACCATCATCAAAGACCAAAAGTAGATAAAA (ssDNA)", "note": "[30 nt ssDNA]", "values": [{"measurement": "Kd", "setting": "ORF1p WT [1]; label: 5' 6-FAM", "value": 8.27, "unit": "nM"}]}, {"molecule": "ACCAUCAUCAAAGACCAAAAGUAGAUAAAA (ssRNA)", "note": "[30 nt RNA]", "values": [{"measurement": "Kd", "setting": "ΔStammer-ORF1p; [9]", "value": 8.06, "unit": "nM"}, {"measurement": "Kd", "setting": "K3A/K4A-ORF1p; [9]", "value": 11.1, "unit": "nM"}, {"measurement": "Kd", "setting": "ORF1p WT [1]; [9]", "value": 3.89, "unit": "nM"}, {"measurement": "Kd", "setting": "His-TEV-ORF1p; [9]", "value": 17.7, "unit": "nM"}, {"measurement": "Kd", "setting": "ORF1p WT [5]", "value": 11.3, "unit": "nM"}, {"measurement": "Kd", "setting": "ORF1p WT [6]", "value": 11.9, "unit": "nM"}]}, {"molecule": "WT-ORF1p (LINE-1 ORF1 protein, Homo sapiens) (natural protein, human, first printed residue of the construct, before the first methionine of ORF1p; left after TEV protease digestion; LINE-1 ORF1p, human, 338 residues as printed; also called pLH2087; source: E. coli BL21(DE3), purified as described previously (19); not shown: His6, N-terminal, cleaved) GMGKKQNRKTGNSKTQSASPPPKERSSSPATEQSWMENDFDELREEGFRRSNYSELREDIQTKGKEVENFEKNLEECITRITNTEKCLKELMELKTKARELREECRSLRSRCDQLEERVSAMEDEMNEMKREGKFREKRIKRNEQSLQEIWDYVKRPNLRLIGVPESDVENGTKLENTLQDIIQENFPNLARQANVQIQEIQRTPQRYSSRRATPRHIIVRFTKVEMKEKMLRAAREKGRVTLKGKPIRLTADLSAETLQARREWGPIFNILKEKNFQPRISYPAKLSFISEGEIKYFIDKQMLRDFVTTRPALKELLKEALNMERNNRYQPLQNHAKM", "values": [{"measurement": "stoichiometry N", "setting": "[7]", "value": "6 and 3"}]}, {"molecule": "K3A/K4A-ORF1p (natural protein, human, first printed residue of the construct, before the first methionine of ORF1p; left after TEV protease digestion; LINE-1 ORF1p, human, with the N-terminal basic patch mutated; also called pLH2075; source: E. coli BL21(DE3), purified as described previously (19); not shown: His6, N-terminal, cleaved) GMGAAQNRKTGNSKTQSASPPPKERSSSPATEQSWMENDFDELREEGFRRSNYSELREDIQTKGKEVENFEKNLEECITRITNTEKCLKELMELKTKARELREECRSLRSRCDQLEERVSAMEDEMNEMKREGKFREKRIKRNEQSLQEIWDYVKRPNLRLIGVPESDVENGTKLENTLQDIIQENFPNLARQANVQIQEIQRTPQRYSSRRATPRHIIVRFTKVEMKEKMLRAAREKGRVTLKGKPIRLTADLSAETLQARREWGPIFNILKEKNFQPRISYPAKLSFISEGEIKYFIDKQMLRDFVTTRPALKELLKEALNMERNNRYQPLQNHAKM", "values": [{"measurement": "binding result", "setting": "[7]", "value": "binds"}]}]}
